Source: patent US12630600B2 (MEDIMMUNE LIMITED, priority 2022, dated 2026)
Starred links: 1 amine or outer side, 2 acyl side, 3 side chain; linkers in the order of their positions; H or OH if unused. Non-standard residues stand in square brackets, D forms with d. Groups on a side chain read outwards from the residue. No end group written: not given here. *: point of attachment. C20 diacid = O=C(O)CCCCCCCCCCCCCCCCCCC(=O)*; C18 diacid = O=C(O)CCCCCCCCCCCCCCCCC(=O)*; γGlu = O=C(O)[C@H](CCC(=O)[*:2])N[*:1]; αMeF = C[C@](N)(Cc1ccccc1)C(=O)O; AEEA = NCCOCCOCC(=O)O; Aib = CC(C)(N)C(=O)O

B1: Peptide 233 (peptide)
peptide: H[Aib]HGS[αMeF]TSDVSK[αMeF]LDSRAAK([AEEA-AEEA-γGlu-γGlu-C20 diacid])D[αMeF]VQ[Aib]IANTGG-NH2
modifications: N-terminus assumed
SMILES: CC[C@H](C)[C@H](NC(=O)C(C)(C)NC(=O)[C@H](CCC(N)=O)NC(=O)[C@@H](NC(=O)[C@](C)(Cc1ccccc1)NC(=O)[C@H](CC(=O)O)NC(=O)[C@H](CCCCNC(=O)COCCOCCNC(=O)COCCOCCNC(=O)CC[C@H](NC(=O)CC[C@H](NC(=O)CCCCCCCCCCCCCCCCCCC(=O)O)C(=O)O)C(=O)O)NC(=O)[C@H](C)NC(=O)[C@H](C)NC(=O)[C@H](CCCNC(=N)N)NC(=O)[C@H](CO)NC(=O)[C@H](CC(=O)O)NC(=O)[C@H](CC(C)C)NC(=O)[C@](C)(Cc1ccccc1)NC(=O)[C@H](CCCCN)NC(=O)[C@H](CO)NC(=O)[C@@H](NC(=O)[C@H](CC(=O)O)NC(=O)[C@H](CO)NC(=O)[C@@H](NC(=O)[C@](C)(Cc1ccccc1)NC(=O)[C@H](CO)NC(=O)CNC(=O)[C@H](Cc1c[nH]cn1)NC(=O)C(C)(C)NC(=O)[C@@H](N)Cc1c[nH]cn1)[C@@H](C)O)C(C)C)C(C)C)C(=O)N[C@@H](C)C(=O)N[C@@H](CC(N)=O)C(=O)N[C@H](C(=O)NCC(=O)NCC(N)=O)[C@@H](C)O
B2: Peptide 146 (peptide)
peptide: H[Aib]QGTFTSDVSK[αMeF]LDSK([AEEA-AEEA-γGlu-C18 diacid])RAQDFVRWLASR-OH
modifications: N-terminus assumed
SMILES: CC(C)C[C@H](NC(=O)[C@H](Cc1c[nH]c2ccccc12)NC(=O)[C@H](CCCNC(=N)N)NC(=O)[C@@H](NC(=O)[C@H](Cc1ccccc1)NC(=O)[C@H](CC(=O)O)NC(=O)[C@H](CCC(N)=O)NC(=O)[C@H](C)NC(=O)[C@H](CCCNC(=N)N)NC(=O)[C@H](CCCCNC(=O)COCCOCCNC(=O)COCCOCCNC(=O)CC[C@H](NC(=O)CCCCCCCCCCCCCCCCC(=O)O)C(=O)O)NC(=O)[C@H](CO)NC(=O)[C@H](CC(=O)O)NC(=O)[C@H](CC(C)C)NC(=O)[C@](C)(Cc1ccccc1)NC(=O)[C@H](CCCCN)NC(=O)[C@H](CO)NC(=O)[C@@H](NC(=O)[C@H](CC(=O)O)NC(=O)[C@H](CO)NC(=O)[C@@H](NC(=O)[C@H](Cc1ccccc1)NC(=O)[C@@H](NC(=O)CNC(=O)[C@H](CCC(N)=O)NC(=O)C(C)(C)NC(=O)[C@@H](N)Cc1c[nH]cn1)[C@@H](C)O)[C@@H](C)O)C(C)C)C(C)C)C(=O)N[C@@H](C)C(=O)N[C@@H](CO)C(=O)N[C@@H](CCCNC(=N)N)C(=O)O
B3: Peptide 149 (peptide)
peptide: H[Aib]QGTFTSDVSK[αMeF]LDSK([AEEA-AEEA-γGlu-C18 diacid])RAQDFVRWVVE[Aib]G-OH
modifications: N-terminus assumed
SMILES: CC(C)C[C@H](NC(=O)[C@](C)(Cc1ccccc1)NC(=O)[C@H](CCCCN)NC(=O)[C@H](CO)NC(=O)[C@@H](NC(=O)[C@H](CC(=O)O)NC(=O)[C@H](CO)NC(=O)[C@@H](NC(=O)[C@H](Cc1ccccc1)NC(=O)[C@@H](NC(=O)CNC(=O)[C@H](CCC(N)=O)NC(=O)C(C)(C)NC(=O)[C@@H](N)Cc1c[nH]cn1)[C@@H](C)O)[C@@H](C)O)C(C)C)C(=O)N[C@@H](CC(=O)O)C(=O)N[C@@H](CO)C(=O)N[C@@H](CCCCNC(=O)COCCOCCNC(=O)COCCOCCNC(=O)CC[C@H](NC(=O)CCCCCCCCCCCCCCCCC(=O)O)C(=O)O)C(=O)N[C@@H](CCCNC(=N)N)C(=O)N[C@@H](C)C(=O)N[C@@H](CCC(N)=O)C(=O)N[C@@H](CC(=O)O)C(=O)N[C@@H](Cc1ccccc1)C(=O)N[C@H](C(=O)N[C@@H](CCCNC(=N)N)C(=O)N[C@@H](Cc1c[nH]c2ccccc12)C(=O)N[C@H](C(=O)N[C@H](C(=O)N[C@@H](CCC(=O)O)C(=O)NC(C)(C)C(=O)NCC(=O)O)C(C)C)C(C)C)C(C)C
B4: Peptide 147 (peptide)
peptide: H[Aib]QGTFTSDVSK[αMeF]LDSK([AEEA-AEEA-γGlu-C18 diacid])RAQDFVRWLEA[Aib]G-OH
modifications: N-terminus assumed
SMILES: CC(C)C[C@H](NC(=O)[C@H](Cc1c[nH]c2ccccc12)NC(=O)[C@H](CCCNC(=N)N)NC(=O)[C@@H](NC(=O)[C@H](Cc1ccccc1)NC(=O)[C@H](CC(=O)O)NC(=O)[C@H](CCC(N)=O)NC(=O)[C@H](C)NC(=O)[C@H](CCCNC(=N)N)NC(=O)[C@H](CCCCNC(=O)COCCOCCNC(=O)COCCOCCNC(=O)CC[C@H](NC(=O)CCCCCCCCCCCCCCCCC(=O)O)C(=O)O)NC(=O)[C@H](CO)NC(=O)[C@H](CC(=O)O)NC(=O)[C@H](CC(C)C)NC(=O)[C@](C)(Cc1ccccc1)NC(=O)[C@H](CCCCN)NC(=O)[C@H](CO)NC(=O)[C@@H](NC(=O)[C@H](CC(=O)O)NC(=O)[C@H](CO)NC(=O)[C@@H](NC(=O)[C@H](Cc1ccccc1)NC(=O)[C@@H](NC(=O)CNC(=O)[C@H](CCC(N)=O)NC(=O)C(C)(C)NC(=O)[C@@H](N)Cc1c[nH]cn1)[C@@H](C)O)[C@@H](C)O)C(C)C)C(C)C)C(=O)N[C@@H](CCC(=O)O)C(=O)N[C@@H](C)C(=O)NC(C)(C)C(=O)NCC(=O)O
B5: Peptide 145 (peptide)
peptide: H[Aib]QGTFTSDVSK[αMeF]LDSK([AEEA-AEEA-γGlu-C18 diacid])RAQDFVRWLASRGI-OH
modifications: N-terminus assumed
SMILES: CC[C@H](C)[C@H](NC(=O)CNC(=O)[C@H](CCCNC(=N)N)NC(=O)[C@H](CO)NC(=O)[C@H](C)NC(=O)[C@H](CC(C)C)NC(=O)[C@H](Cc1c[nH]c2ccccc12)NC(=O)[C@H](CCCNC(=N)N)NC(=O)[C@@H](NC(=O)[C@H](Cc1ccccc1)NC(=O)[C@H](CC(=O)O)NC(=O)[C@H](CCC(N)=O)NC(=O)[C@H](C)NC(=O)[C@H](CCCNC(=N)N)NC(=O)[C@H](CCCCNC(=O)COCCOCCNC(=O)COCCOCCNC(=O)CC[C@H](NC(=O)CCCCCCCCCCCCCCCCC(=O)O)C(=O)O)NC(=O)[C@H](CO)NC(=O)[C@H](CC(=O)O)NC(=O)[C@H](CC(C)C)NC(=O)[C@](C)(Cc1ccccc1)NC(=O)[C@H](CCCCN)NC(=O)[C@H](CO)NC(=O)[C@@H](NC(=O)[C@H](CC(=O)O)NC(=O)[C@H](CO)NC(=O)[C@@H](NC(=O)[C@H](Cc1ccccc1)NC(=O)[C@@H](NC(=O)CNC(=O)[C@H](CCC(N)=O)NC(=O)C(C)(C)NC(=O)[C@@H](N)Cc1c[nH]cn1)[C@@H](C)O)[C@@H](C)O)C(C)C)C(C)C)C(=O)O
B6: Peptide 148 (peptide)
peptide: H[Aib]QGTFTSDVSK[αMeF]LDSK([AEEA-AEEA-γGlu-C18 diacid])RAQDFVRWIAE[Aib]G-OH
modifications: N-terminus assumed
SMILES: CC[C@H](C)[C@H](NC(=O)[C@H](Cc1c[nH]c2ccccc12)NC(=O)[C@H](CCCNC(=N)N)NC(=O)[C@@H](NC(=O)[C@H](Cc1ccccc1)NC(=O)[C@H](CC(=O)O)NC(=O)[C@H](CCC(N)=O)NC(=O)[C@H](C)NC(=O)[C@H](CCCNC(=N)N)NC(=O)[C@H](CCCCNC(=O)COCCOCCNC(=O)COCCOCCNC(=O)CC[C@H](NC(=O)CCCCCCCCCCCCCCCCC(=O)O)C(=O)O)NC(=O)[C@H](CO)NC(=O)[C@H](CC(=O)O)NC(=O)[C@H](CC(C)C)NC(=O)[C@](C)(Cc1ccccc1)NC(=O)[C@H](CCCCN)NC(=O)[C@H](CO)NC(=O)[C@@H](NC(=O)[C@H](CC(=O)O)NC(=O)[C@H](CO)NC(=O)[C@@H](NC(=O)[C@H](Cc1ccccc1)NC(=O)[C@@H](NC(=O)CNC(=O)[C@H](CCC(N)=O)NC(=O)C(C)(C)NC(=O)[C@@H](N)Cc1c[nH]cn1)[C@@H](C)O)[C@@H](C)O)C(C)C)C(C)C)C(=O)N[C@@H](C)C(=O)N[C@@H](CCC(=O)O)C(=O)NC(C)(C)C(=O)NCC(=O)O
B7: Peptide 205 (peptide)
peptide: H[Aib]QGT[αMeF]TSDVSK[αMeF]LDSRAAK([AEEA-AEEA-γGlu-C18 diacid])DFVQWIANT-NH2
modifications: N-terminus assumed
SMILES: CC[C@H](C)[C@H](NC(=O)[C@H](Cc1c[nH]c2ccccc12)NC(=O)[C@H](CCC(N)=O)NC(=O)[C@@H](NC(=O)[C@H](Cc1ccccc1)NC(=O)[C@H](CC(=O)O)NC(=O)[C@H](CCCCNC(=O)COCCOCCNC(=O)COCCOCCNC(=O)CC[C@H](NC(=O)CCCCCCCCCCCCCCCCC(=O)O)C(=O)O)NC(=O)[C@H](C)NC(=O)[C@H](C)NC(=O)[C@H](CCCNC(=N)N)NC(=O)[C@H](CO)NC(=O)[C@H](CC(=O)O)NC(=O)[C@H](CC(C)C)NC(=O)[C@](C)(Cc1ccccc1)NC(=O)[C@H](CCCCN)NC(=O)[C@H](CO)NC(=O)[C@@H](NC(=O)[C@H](CC(=O)O)NC(=O)[C@H](CO)NC(=O)[C@@H](NC(=O)[C@](C)(Cc1ccccc1)NC(=O)[C@@H](NC(=O)CNC(=O)[C@H](CCC(N)=O)NC(=O)C(C)(C)NC(=O)[C@@H](N)Cc1c[nH]cn1)[C@@H](C)O)[C@@H](C)O)C(C)C)C(C)C)C(=O)N[C@@H](C)C(=O)N[C@@H](CC(N)=O)C(=O)N[C@H](C(N)=O)[C@@H](C)O

Assays:
Assay in all cases: cell-based or functional assay
[1] = molecular target: human glucagon receptor (human, UniProt P47871)
[2] = molecular target: human GLP-1 receptor (human, UniProt P43220)
[3] = molecular target: human glucagon receptor (human, UniProt P47871); remark: listed apart in the source
[4] = molecular target: human GLP-1 receptor (human, UniProt P43220); remark: listed apart in the source

Binder | hGluc-R EC50 (pM) [1] [pM] | cAMP production, hGLP-1R EC50 (pM) [2] [pM] | cAMP production, hGluc-R EC50 (pM) [3] [pM] | hGLP-1R EC50 (pM) [4] [pM]
B1 | 407 |  |  | 
B2 |  | 24.6 | 1630 | 
B3 |  | 8.71 | 2650 | 
B4 |  | 15.3 | 43.5 | 
B5 |  | 22.6 | 4590 | 
B6 |  | 40.2 | 568 | 
B7 | 8.14 |  |  | 29.9
H[Aib]HGS[αMeF]TSDVSK[αMeF]LDSR[Aib]AK([AEEA-AEEA-γGlu-γGlu-C18 diacid])D[αMeF]VESIANT-NH2 [Peptide 250] |  |  |  | 601
